The text below walks through data of article PMC9516175.

The test system of the data set is VIRP1 (Arabidopsis thaliana). Nature of the data set: EMSA.

Turning to PSTVd WT, the binding signal (% of WT shifted) is 100.
For Q-satRNA WT the value was 100; for HSVd WT, 100.
